One block for each binder: values may come before it.
Key:
[1] = target: T1, recombinant human CD3 epsilon/gamma heterodimer (human, UniProt P07766 23-126; P09693 23-116); assay: Octet BLI, mAb on FAB2G sensor, hCD3 E/G 200-50 nM; R^2 0.59
T1 construct: Recombinant protein in solution (200-50 nM) in the Octet assay; also called hCD3 E/G

[2] = target: T2, recombinant human CD3 epsilon/delta heterodimer (human, UniProt P07766 23-126; P04234 22-105); assay: Octet BLI, mAb on FAB2G sensor, hCD3 E/D 200-50 nM; R^2 0.92
T2 construct: Recombinant protein in solution (200-50 nM) in the Octet assay; also called hCD3 E/D; human CD3E/D
T2 sequence (P07766 23-126, stated change not applied, chain 1 of 2): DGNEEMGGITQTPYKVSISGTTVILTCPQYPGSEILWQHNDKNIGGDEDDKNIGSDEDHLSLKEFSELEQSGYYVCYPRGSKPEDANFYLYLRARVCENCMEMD
T2 sequence (P04234 22-105, stated change not applied, chain 2 of 2): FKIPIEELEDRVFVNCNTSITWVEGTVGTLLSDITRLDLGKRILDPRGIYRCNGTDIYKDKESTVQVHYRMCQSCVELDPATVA

[3] = target: T2, recombinant human CD3 epsilon/delta …; assay: Octet BLI, mAb on FAB2G sensor, hCD3 E/D 200-50 nM; R^2 1.00
[4] = target: T1, recombinant human CD3 epsilon/gamma …; assay: Octet BLI, mAb on FAB2G sensor, hCD3 E/G 200-50 nM; R^2 0.00
[5] = target: T2, recombinant human CD3 epsilon/delta …; assay: Octet BLI, mAb on FAB2G sensor, hCD3 E/D 200-50 nM; R^2 0.98;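 also: antibodies purified from hybridoma supernatants, measured by Octet binding to recombinant human CD3 protein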
Procedure: (§1) Samples were evaluated by flow cytometry analysis against Jurkat and human Pan-T cells (FIG. 1B) as well as by Octet against recombinant human CD3 proteins to evaluate apparent affinities and binding off-rates (Table 6, infra).

[6] = target: T1, recombinant human CD3 epsilon/gamma …; assay: Octet BLI, mAb on FAB2G sensor, hCD3 E/G 200-50 nM; R^2 0.95
Procedure: as §1

[7] = target: T1, recombinant human CD3 epsilon/gamma …; assay: Octet BLI, mAb on FAB2G sensor, hCD3 E/G 200-50 nM; R^2 0.85
Procedure: as §1

[8] = target: T2, recombinant human CD3 epsilon/delta …; assay: Octet BLI, mAb on FAB2G sensor, hCD3 E/D 200-50 nM; R^2 0.96
Procedure: as §1

[9] = target: T1, recombinant human CD3 epsilon/gamma …; assay: Octet BLI, mAb on FAB2G sensor, hCD3 E/G 200-50 nM; R^2 0.92
Procedure: as §1

[10] = target: T2, recombinant human CD3 epsilon/delta …; assay: Octet BLI, mAb on FAB2G sensor, hCD3 E/D 200-50 nM; R^2 0.94
Procedure: as §1

[11] = target: T1, recombinant human CD3 epsilon/gamma …; assay: Octet BLI, mAb on FAB2G sensor, hCD3 E/G 200-50 nM; R^2 0.64
Procedure: as §1

[12] = target: T1, recombinant human CD3 epsilon/gamma …; assay: Octet BLI, mAb on FAB2G sensor, hCD3 E/G 200-50 nM; R^2 0.79
Procedure: as §1

[13] = target: T1, recombinant human CD3 epsilon/gamma …; assay: Octet BLI, mAb on FAB2G sensor, hCD3 E/G 200-50 nM; R^2 0.96
[14] = target: T2, recombinant human CD3 epsilon/delta …; assay: Octet BLI, mAb on FAB2G sensor, hCD3 E/D 200-50 nM; R^2 0.95
Procedure: as §1

[15] = target: T1, recombinant human CD3 epsilon/gamma …; assay: Octet BLI, mAb on FAB2G sensor, hCD3 E/G 200-50 nM; R^2 0.76
Procedure: as §1

[16] = target: T1, recombinant human CD3 epsilon/gamma …; assay: Octet BLI, mAb on FAB2G sensor, hCD3 E/G 200-50 nM; R^2 0.49
Procedure: as §1

[17] = target: T2, recombinant human CD3 epsilon/delta …; assay: Octet BLI, mAb on FAB2G sensor, hCD3 E/D 200-50 nM; R^2 0.60
Procedure: as §1

T1 sequence (P07766 23-126, chain 1 of 2): as the sequence (P07766 23-126, stated change not applied, chain 1 of 2) above
T1 sequence (P09693 23-116, chain 2 of 2): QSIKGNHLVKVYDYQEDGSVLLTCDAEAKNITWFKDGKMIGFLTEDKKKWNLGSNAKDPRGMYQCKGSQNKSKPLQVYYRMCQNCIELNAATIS

B4: ABL-CD3-22 (antibody, V domains shown)
VH: EVQLVESGGGLVQPGGSLRLSCAASGFTFSSYSMNWVRQAPGKGLEWVSYISSSSSTIYYADSVKGRFTISRDNAKNSLYLQMNSLRDEDTAVYYCARDGPVDYGMDVWGQGTTVTVSS
VL: SYELTQPPSVSVSPGQTARITCSGDALPKQYTYWCQQKPGQAPVLVIYKDSERPSGIPERFSGSSSGTTVTLTISGVQAEDEADYYCQSADSSGTYRVFGGGTKLTVL
notes: Chimeric hybridoma mAb: human V, CH1, upper hinge; mouse middle hinge, CH2, CH3
Kd [7]: 14.4 nM
koff [7]: 0.00639 s⁻¹
kon [7]: 444000 M⁻¹ s⁻¹
Kd [8]: 49.2 nM
Response [8]: 0.08
koff [8]: 0.00513 s⁻¹
kon [8]: 104000 M⁻¹ s⁻¹

B5: ABL-CD3-31 (antibody, V domains shown)
VH: EVQLVQSGAEVKKPGESLKISCKGSGYSFTNYWIGWVRQMPGKGLEWMGIIYPADSDTTYSPSFQGQVTISADKSITTAYLQWSSLKASDTAMYYCARHGGSYILDAFDIWGQGTMVTVSS
VL: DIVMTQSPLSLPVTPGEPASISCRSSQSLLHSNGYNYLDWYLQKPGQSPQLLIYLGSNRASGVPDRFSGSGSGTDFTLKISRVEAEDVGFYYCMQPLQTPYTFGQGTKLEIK
notes: as for B4
Kd [9]: 5.64 nM
koff [9]: 0.00173 s⁻¹
kon [9]: 306000 M⁻¹ s⁻¹
Kd [10]: 6.66 nM
koff [10]: 0.00149 s⁻¹
kon [10]: 223000 M⁻¹ s⁻¹

B6: ABL-CD3-27 (antibody, V domains shown)
VH: QVQLVQSGAEVKKPGASLKVSCKASGYTFTSYYMHWVRQAPGQGLEWMGIINPSNGNTISAQKFQGRVTMTRDTSTSTVYMEMSSLRSEDTAVYYCVRCWGYYVMDVWGQGTTVTVSS
VL: QTVVTQEPSFSVSPGGTVTLTCGLNSGSVSTSYYPSWYQQTPGQTPRTLIYSTNTRSSGVPDRFSGSILGNKAALTITGAQADDESDYYCVLYMGSGIWVFGGGTKLTVL
notes: as for B4
Kd [8]: 2.31 nM
Response [8]: 0.39
koff [8]: 0.000528 s⁻¹
kon [8]: 228000 M⁻¹ s⁻¹
Kd [11]: 3.65 nM
koff [11]: 0.00156 s⁻¹
kon [11]: 428000 M⁻¹ s⁻¹

B7: ABL-CD3-21 (antibody, V domains shown)
VH: EVQLVESGGGLVKPGGSLRLSCAASGFTFSSYSMNWVRQAPGKGLEWVSSISRSSSYIYYADSVKGRFTLSRDNAKNSLYLQMNSLRGEDTAIYYCGRDGKGAIFLDYWGQGTLVTVSS
VL: SYELTQPPSVSVSPGQTARITCSGDALPKKYAYWYQQKSGQAPVLVIYEDSKRPSGIPERFSGSSSGTMATLTISGAQVEDEADYYCYSTHSSGNHRVFGGGTKLTVL
notes: as for B4
Kd [5]: 95.3 nM
Response [5]: 0.27
koff [5]: 0.036 s⁻¹
kon [5]: 378000 M⁻¹ s⁻¹
Kd [12]: 130 nM
koff [12]: 0.0994 s⁻¹
kon [12]: 766000 M⁻¹ s⁻¹

B8: ABL-CD3-32 (antibody, V domains shown)
VH: EVQLVESGGGLVKPGGSLRLSCEASGFTFSSYNMNWVRQAPGKGLEWVSSISSSSSYIYYTDSVKGRFTISRDNAKNSLYLQMNSLRAEDTAVYYCARAERGSYAFDFWGQGTMVTVSS
VL: not shown
notes: as for B4
Kd [13]: 31.6 nM
koff [13]: 0.00962 s⁻¹
kon [13]: 305000 M⁻¹ s⁻¹
Kd [14]: 38.9 nM
koff [14]: 0.0152 s⁻¹
kon [14]: 390000 M⁻¹ s⁻¹

B10: ABL-CD3-18 (antibody, V domains shown)
VH: EVQLVESGEGLVQPGGSLRLSCAASGFTFSSYAMHWVRQAPGKGLEYVSAISSNGGRTYYADSVKGRFTISRDNSKNTLYLQMGSLRAEDMAVYYCARGGSLDYWGQGTLVTVSS
VL: DIVMTQTPLSSPVTPGQPASISCRSSQSLVHSDGNTYLNWLQQRPGQPPRLLIYKISDRFSGVPDRFSGSGAGTDFTLKIGRVEAEDVGVYYCMQSTQFPITFGQGTRLEIK
notes: as for B4
Kd [16]: < 0.001 nM
koff [16]: < 1e-07 s⁻¹
kon [16]: 27000 M⁻¹ s⁻¹
Kd [17]: < 0.001 nM
koff [17]: < 1e-07 s⁻¹
kon [17]: 29100 M⁻¹ s⁻¹

Results, then the binder that gave them:

Kd [1]: 1.43 nM
koff [1]: 0.00269 s⁻¹
kon [1]: 1.89e+06 M⁻¹ s⁻¹
Kd [2]: 17.8 nM
koff [2]: 0.00404 s⁻¹
kon [2]: 227000 M⁻¹ s⁻¹
B1: ABL-CD3-37 (antibody, V domains shown)
VH: EVQLVESGGGLVQPGGSLRLSCAASGFSFSSYSMNWVRQAPGKGLEWVSHIRSSTYSIYYADSVMGRFTISRDNAKNSLYLQMNSLRDEDTAVYFCARAKTGGDAFDIWGQGTMVTVSS
VL: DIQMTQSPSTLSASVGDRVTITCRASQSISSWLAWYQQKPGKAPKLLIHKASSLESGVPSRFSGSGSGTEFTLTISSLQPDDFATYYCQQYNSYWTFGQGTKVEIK
notes: as for B4

Kd [3]: 8.32 nM
Response [3]: 0.41
koff [3]: 0.000307 s⁻¹
kon [3]: 36900 M⁻¹ s⁻¹
Kd [4]: < 0.001 nM
koff [4]: < 1e-07 s⁻¹
kon [4]: 50000 M⁻¹ s⁻¹
B2: ABL-CD3-39 (antibody, V domains shown)
VH: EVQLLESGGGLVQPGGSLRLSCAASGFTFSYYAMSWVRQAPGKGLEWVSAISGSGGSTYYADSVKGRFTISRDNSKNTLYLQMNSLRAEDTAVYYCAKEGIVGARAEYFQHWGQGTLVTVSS
VL: DVVMTQSPLSLPVTLGQPASISCRSSQSLVYSDGNTYLTWFQQRPGQSPRRLIYKVSNRDSGVPDRFSGSGSGTDFTLKISRVEAEDVEIYYCMQGTHWPLTFGGGTKVEIK
notes: as for B4

Kd [5]: 117 nM
Response [5]: 0.26
koff [5]: 0.0218 s⁻¹
kon [5]: 187000 M⁻¹ s⁻¹
Kd [6]: 69.2 nM
koff [6]: 0.0402 s⁻¹
kon [6]: 581000 M⁻¹ s⁻¹
B3: ABL-CD3-61 (antibody, V domains shown)
VH: EVQLVESGGGLVKPGGSLRLSCAASGFTFSSYSMNWVRQAPGKGLEWVSSISRSGTYIYYADSVKGRFTISRDNAKNSLYLQMNSLRAEDTAVYYCARERWELLYFDYWGQGTLVTVSS
VL: QTVVTQEPSLTVSPGGTVTLTCASSTGAVTSGYYPNWFQQKPGQAPRALIYSTSNKHSWTPARFSGSLLGGKAALTLSGVQPEDEAEYYCLLYYGGAYVFGTGTKVTVL
notes: as for B4

Kd [15]: 4.18 nM
koff [15]: 0.00729 s⁻¹
kon [15]: 1.74e+06 M⁻¹ s⁻¹
Kd [3]: 25 nM
Response [3]: 0.49
koff [3]: 0.00101 s⁻¹
kon [3]: 40400 M⁻¹ s⁻¹
B9: ABL-CD3-36 (antibody, V domains shown)
VH: EVQLVESGGGLVQRGGSLRLSCAASGFTFSNYWMSWVRQAPGKGLEWVANIKEDGSEKYCVDSVKGRFTISRDNAKHSLYLQMNSLRAEDTAVYYCARERRTGYFDYWGQGTLVTVSS
VL: DIQMTQSPSTLSASVGDRVTITCRASQSISSWLAWFQQKTGKAPKLLIYKASSLESGVPSRFSGSGSGTEFTLTISSLQPDDFATYYCQQYISYSWTFGQGTKVEIK
notes: as for B4

— patent US20260167721A1 (ABLEXIS, published 2026)
